Data taken from PMC8102066, “Differences in interactions between transmembrane domains tune the activation of metabotropic glutamate receptors” (eLife, 2021).

Biological target: the molecule itself
Test: single-molecule pulldown (SiMPull) with photobleaching step counting; HEK 293T cells surface-labelled with BG-LD555, lysed in 1.2% IGEPAL, diluted in 0.1% IGEPAL buffer; HA-SNAP constructs captured by biotinylated anti-HA antibody on NeutrAvidin/PEG slides; TIRF; percent dimerization = two-step bleaching min-max normalised (5% background, 55% for full-length mGluR2); in some experiments saturating ligands (TASP, MNI …)

B1: HA-SNAP-mGluR3-C127A (receptor, rat, UniProt P31422 23-879, looked up)
chain: LGDHNFMRREIKIEGDLVLGGLFPINEKGTGTEECGRINEDRGIQRLEAMLFAIDEINKDNYLLPGVKLGVHILDTCSRDTYALEQSLEFVRASLTKVDEAEYMAPDGSYAIQENIPLLIAGVIGGSYSSVSIQVANLLRLFQIPQISYASTSAKLSDKSRYDYFARTVPPDFYQAKAMAEILRFFNWTYVSTVASEGDYGETGIEAFEQEARLRNICIATAEKVGRSNIRKSYDSVIRELLQKPNARVVVLFMRSDDSRELIAAANRVNASFTWVASDGWGAQESIVKGSEHVAYGAITLELASHPVRQFDRYFQSLNPYNNHRNPWFRDFWEQKFQCSLQNKRNHRQVCDKHLAIDSSNYEQESKIMFVVNAVYAMAHALHKMQRTLCPNTTKLCDAMKILDGKKLYKEYLLKINFTAPFNPNKGADSIVKFDTFGDGMGRYNVFNLQQTGGKYSYLKVGHWAETLSLDVDSIHWSRNSVPTSQCSDPCAPNEMKNMQPGDVCCWICIPCEPYEYLVDEFTCMDCGPGQWPTADLSGCYNLPEDYIKWEDAWAIGPVTIACLGFLCTCIVITVFIKHNNTPLVKASGRELCYILLFGVSLSYCMTFFFIAKPSPVICALRRLGLGTSFAICYSALLTKTNCIARIFDGVKNGAQRPKFISPSSQVFICLGLILVQIVMVSVWLILETPGTRRYTLPEKRETVILKCNVKDSSMLISLTYDVVLVILCTVYAFKTRKCPENFNEAKFIGFTMYTTCIIWLAFLPIFYVTSSDYRVQTTTMCISVSLSGFVVLGCLFAPKVHIVLFQPQKNVVTHRLHLNRFSVSGTATTYSQSSASTYVPTVCNGREVLDSTTSSL
modifications: SNAP tag labelled with BG-LD555 (BG-LD655 in two-colour SiMPull)
notes: mGluR3, full-length receptor with the intersubunit disulfide cysteine of the LBD mutated; source: HEK 293T, transfected, in lysate; not shown: HA, N-terminal, kept; SNAP, N-terminal, kept
fold reduction in dimerization against SNAP-mGluR3: 2 fold
